Experimental data published in article PMC9723548, “Sulfate adenylyl transferase kinetics and mechanisms of metabolic inhibitors of microbial sulfate respiration” (ISME Communications, 2021).

B1: sulfate adenylyl transferase (Sat) / ATP sulfurylase (Oleidesulfovibrio alaskensis G20) (protein)
chain: MSNLVPPHGGKGLVCCLLEGAEKEAELKKAAGLKQIEISSRAKGDLIMMGTGGFSPLSGFMKKADWKSVCEKMTLADGTFWPVPVTLDVSKEEAASMKEGDEIALVRGGEVFATMKVEELYEMTDADKKWECELVFKGEGPDSEKFWDIAEEDHPGVKMVMAQKEFNVAGPVKVLSEGDFPTKFAGVYKRPAELRAELEERGWSNVAALQLRNPMHRSHEYLAKIAVEVCDGVVIHSLVGSLKPGDIPAEVRVKCIDTLVEKYFVKENVIQAGYPLDMRYAGPREGLLHATFRQNYGVSRMIIGRDHAGVGDFYGMFEAQTIFDKIPYAKEACPEPGKALLCEPLKIDWTFYCFKCDGMASLRTCPHSKEDRVLLSGTKLRKALSEGSDVPDHFGREEVLDILREYYGGLTEKVEVKMQRAASGSQM

How the values were obtained:
[1] = target: T1, sulfate adenylyl transferase (Sat) / ATP sulfurylase (Oleidesulfovibrio alaskensis, UniProt Q30Z34); test: pyrophosphate accumulation, modified molybdenum blue assay
T1 construct: gene Dde_2265
T1 sequence (Q30Z34 1-427): B1 chain

purified protein [2] = substrate: O=[Se](=O)(O)O; test: purified protein
purified protein [3] = substrate: [O]=[Cr](=[O])([OH])[OH]; test: purified protein; conditions: alternative substrate in place of sulfate; co-substrate ATP

Row | Molecule | Ki [1] | Km (purified protein [2]) | kcat/Km (purified protein [2]) | Km (purified protein [3]) | kcat (purified protein [3]) | kcat/Km (purified protein [3])
1 | O=[N+]([O-])O [NO3^−] | 3.6 ± 0.27 mM |  |  |  |  | 
2 | [O-][Cl+2]([O-])O [ClO3^−] | 0.316 ± 0.017 mM |  |  |  |  | 
3 | B1 |  | 1770 ± 550 µM | 160 M⁻¹ s⁻¹ | 793 ± 140 µM | 16 s⁻¹ | 20000 M⁻¹ s⁻¹
